From US20220177591A1 (TARGINTA, published 2022)

Target: T1, human integrin alpha10 on human cancer cell lines (BT549, PC-3, A549, MiaPaCa-2, PANC-1) (human, UniProt O75578 23-1167)
T1 construct: Endogenous protein on human cell lines; also called integrin alpha10 polypeptide; alpha10 subunit of integrin alpha10 beta1
T1 sequence: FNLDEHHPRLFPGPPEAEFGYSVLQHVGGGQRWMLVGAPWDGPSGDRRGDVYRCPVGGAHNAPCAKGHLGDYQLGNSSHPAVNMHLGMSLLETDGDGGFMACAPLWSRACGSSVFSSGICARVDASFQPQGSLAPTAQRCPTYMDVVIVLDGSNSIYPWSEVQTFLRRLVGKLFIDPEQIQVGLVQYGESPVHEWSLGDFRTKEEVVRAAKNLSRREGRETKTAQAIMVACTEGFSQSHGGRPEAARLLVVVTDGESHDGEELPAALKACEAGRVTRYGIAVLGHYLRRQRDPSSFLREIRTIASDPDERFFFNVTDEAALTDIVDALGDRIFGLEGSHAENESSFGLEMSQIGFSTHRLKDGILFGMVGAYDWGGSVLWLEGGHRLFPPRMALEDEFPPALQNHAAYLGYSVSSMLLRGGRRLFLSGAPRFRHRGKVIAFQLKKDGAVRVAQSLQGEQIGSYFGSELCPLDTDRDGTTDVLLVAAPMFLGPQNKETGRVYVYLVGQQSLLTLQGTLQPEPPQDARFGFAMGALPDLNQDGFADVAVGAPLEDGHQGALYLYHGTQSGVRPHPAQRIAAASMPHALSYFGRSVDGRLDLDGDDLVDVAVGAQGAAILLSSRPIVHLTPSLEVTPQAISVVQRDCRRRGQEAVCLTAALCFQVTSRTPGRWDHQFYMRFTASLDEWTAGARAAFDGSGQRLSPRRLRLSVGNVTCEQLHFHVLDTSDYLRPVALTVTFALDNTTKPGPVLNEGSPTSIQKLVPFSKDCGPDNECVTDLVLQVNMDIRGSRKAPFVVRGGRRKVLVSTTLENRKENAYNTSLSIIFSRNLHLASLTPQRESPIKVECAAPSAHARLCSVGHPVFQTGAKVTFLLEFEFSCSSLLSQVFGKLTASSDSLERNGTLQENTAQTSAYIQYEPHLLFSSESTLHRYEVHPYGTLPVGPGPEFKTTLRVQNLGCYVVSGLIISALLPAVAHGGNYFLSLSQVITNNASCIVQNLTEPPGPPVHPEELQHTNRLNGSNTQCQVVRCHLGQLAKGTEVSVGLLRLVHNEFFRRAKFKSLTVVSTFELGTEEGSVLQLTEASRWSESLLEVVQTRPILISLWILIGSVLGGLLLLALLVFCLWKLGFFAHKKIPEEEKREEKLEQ
Experiment: flow cytometry competition on BT549 cells
Protocol: The binding competition assay of the antibody mouse monoclonal antibody mAbα10 and the human monoclonal antibody Th101 was performed in integrin alpha10 overexpressing C2C12α10 cells and triple-negative breast cancer BT549 cells. The cells were incubated with single or mixed antibodies at the indicated concentrations (μg/ml) for 30 min followed by two washed, and then stained with secondary antibodies for 30 min. Donkey anti-human Alexa 488 was used as a secondary antibody to the human monoclonal antibody Th101. Donkey anti-mouse Alexa 647 was used as a secondary antibody to the mouse monoclonal antibody mAbα10. The binding of the antibodies was analyzed by flow cytometry, wherein the fluorescence signal of the secondary antibodies were detected.

binding result: binds
B1: human monoclonal anti-integrin alpha10 antibody Th101 (antibody, V domains shown)
VH: EVQLLESGGGLVQPGGSLRLSCAASGFTFSDYGMNWVRQAPGKGLEWVAVISYDGSNKYYADSVKGRFTISRDNSKNTLYLQMNSLRAEDTAVYYCARGGNWGVFDYWGQGTLVTVSS
VL: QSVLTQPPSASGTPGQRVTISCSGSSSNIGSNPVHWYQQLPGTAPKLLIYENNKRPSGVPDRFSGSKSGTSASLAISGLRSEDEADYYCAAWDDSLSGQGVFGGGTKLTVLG
notes: It is a human monoclonal antibody detected with an anti-human secondary; Its negative control Th301 is human IgG1 VH/Lambda
